Measurements reported in patent US20250382363A1 (NUMAB THERAPEUTICS, published 2025).

How the values were obtained:
[1] = biological target: T1, human a-Mesothelin (Acro Biosystems; MSN_H5223) (human, UniProt Q13421 296-580, limits assumed); assay: SPR, mesothelin immobilised, scFv analyte, 1:1 fit
T1 construct: Bought protein immobilised on the SPR chip; Printed as 'a-Mesothelin' but used as the antigen for the anti-MSLN scFvs; also called Human MSLN; MSLN
Description: The mutation variants were then injected at concentrations of 10 nM, 2 nM and 0.4 nM over the ligand-immobilized and reference spots. The wild type variants were used as a control, while an empty spot was used as reference.
After each cycle with analyte, the surface was regenerated with a 3M MgCl₂ solution, thereby allowing the next analyte cycle to have only free ligand available. Binding affinity KD was globally calculated by the Bruker SPR software based on the binding association (kₒₙ) and dissociation (Koff) rate, by fitting a 1:1 Langmuir model to the curves obtained by the cycles with the three different concentrations of the analyte.

[2] = biological target: pre-existing anti-drug antibodies (ADA) present in human sera; assay: pre-existing ADA ELISA, scFv coated, human sera unspiked vs spiked

T1 sequence (Q13421 other isoform, or with tags, fused parts or gaps limits assumed): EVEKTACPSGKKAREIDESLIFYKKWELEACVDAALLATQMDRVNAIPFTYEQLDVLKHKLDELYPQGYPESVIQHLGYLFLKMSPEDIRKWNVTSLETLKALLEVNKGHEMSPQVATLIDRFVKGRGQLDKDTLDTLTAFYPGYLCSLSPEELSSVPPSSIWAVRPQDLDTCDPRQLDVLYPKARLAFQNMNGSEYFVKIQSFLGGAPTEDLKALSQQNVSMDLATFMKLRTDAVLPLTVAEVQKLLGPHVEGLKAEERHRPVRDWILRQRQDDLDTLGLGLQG

| Binder | Kd [1] | n-fold to wt [1] | Mean No of serum samples >30% inhibition (30% CCP) with SCP (serum samples) [2] | No of serum samples >30% inhibition (30% CCP) without SCP (serum samples) [2] |
| --- | --- | --- | --- | --- |
| PRO3324 (scFv 54-21-H03-sc01_(T101R, T146Q)) (scFv, PRO1922 variant; VH substitutions, AHo numbering; also called PRO1922 T101R-T146Q) scFv: DIQMTQSPSSLSASVGDRVTITCQASESIYSSLAWYQQKPGKAPKLLIYLASTLASGVPSRFSGSGSGTDFTLTISSLQPEDFATYYCQSTDYTTSTHRNSFGTGTKVTVLGGGGGSGGGGSGGGGSGGGGSEVQLVESGGGLVQPGGSLRLSCAASGFSFSTTYYMCWVRQAPGKGLEWIGCTNTASSVRTYYATWAKGRFTISRDNSKNTVYLQMNSLRAEDRAVYYCARDMGFADYALNLWGQGTLVQVSS | 1.9 nM | 1.1 fold | 1 | 2 |
| PRO3347 (scFv 54-21-H03-sc01_(T101S, T146S)) (scFv, PRO1922 variant; VH substitutions, AHo numbering; also called PRO1922 T101S-T146S) scFv: DIQMTQSPSSLSASVGDRVTITCQASESIYSSLAWYQQKPGKAPKLLIYLASTLASGVPSRFSGSGSGTDFTLTISSLQPEDFATYYCQSTDYTTSTHRNSFGTGTKVTVLGGGGGSGGGGSGGGGSGGGGSEVQLVESGGGLVQPGGSLRLSCAASGFSFSTTYYMCWVRQAPGKGLEWIGCTNTASSVRTYYATWAKGRFTISRDNSKNTVYLQMNSLRAEDSAVYYCARDMGFADYALNLWGQGTLVSVSS | 1.7 nM | 0.9 fold | 3 | 3 |
| PRO3326 (scFv 54-21-H03-sc01_(T101Q, T146Q)) (scFv, PRO1922 variant; VH substitutions, AHo numbering; also called PRO1922 T101Q-T146Q) scFv: DIQMTQSPSSLSASVGDRVTITCQASESIYSSLAWYQQKPGKAPKLLIYLASTLASGVPSRFSGSGSGTDFTLTISSLQPEDFATYYCQSTDYTTSTHRNSFGTGTKVTVLGGGGGSGGGGSGGGGSGGGGSEVQLVESGGGLVQPGGSLRLSCAASGFSFSTTYYMCWVRQAPGKGLEWIGCTNTASSVRTYYATWAKGRFTISRDNSKNTVYLQMNSLRAEDQAVYYCARDMGFADYALNLWGQGTLVQVSS | 1.8 nM | 1 fold | 0 | 0 |
| PRO3345 (scFv 54-21-H03-sc01_(T101N, T146Q)) (scFv, PRO1922 variant; VH substitutions, AHo numbering; also called PRO1922 T101N-T146Q) scFv: DIQMTQSPSSLSASVGDRVTITCQASESIYSSLAWYQQKPGKAPKLLIYLASTLASGVPSRFSGSGSGTDFTLTISSLQPEDFATYYCQSTDYTTSTHRNSFGTGTKVTVLGGGGGSGGGGSGGGGSGGGGSEVQLVESGGGLVQPGGSLRLSCAASGFSFSTTYYMCWVRQAPGKGLEWIGCTNTASSVRTYYATWAKGRFTISRDNSKNTVYLQMNSLRAEDNAVYYCARDMGFADYALNLWGQGTLVQVSS | 1.5 nM | 0.8 fold | 0 | 0 |
| PRO3344 (scFv 54-21-H03-sc01_(T101K, T146Q)) (scFv, PRO1922 variant; VH substitutions, AHo numbering; also called PRO1922 T101K-T146Q) scFv: DIQMTQSPSSLSASVGDRVTITCQASESIYSSLAWYQQKPGKAPKLLIYLASTLASGVPSRFSGSGSGTDFTLTISSLQPEDFATYYCQSTDYTTSTHRNSFGTGTKVTVLGGGGGSGGGGSGGGGSGGGGSEVQLVESGGGLVQPGGSLRLSCAASGFSFSTTYYMCWVRQAPGKGLEWIGCTNTASSVRTYYATWAKGRFTISRDNSKNTVYLQMNSLRAEDKAVYYCARDMGFADYALNLWGQGTLVQVSS | 1.6 nM | 0.9 fold | 0 | 0 |
| PRO3348 (scFv 54-21-H03-sc01_(T101K, T146D)) (scFv, PRO1922 variant; VH substitutions, AHo numbering; also called PRO1922 T101K-T146D) scFv: DIQMTQSPSSLSASVGDRVTITCQASESIYSSLAWYQQKPGKAPKLLIYLASTLASGVPSRFSGSGSGTDFTLTISSLQPEDFATYYCQSTDYTTSTHRNSFGTGTKVTVLGGGGGSGGGGSGGGGSGGGGSEVQLVESGGGLVQPGGSLRLSCAASGFSFSTTYYMCWVRQAPGKGLEWIGCTNTASSVRTYYATWAKGRFTISRDNSKNTVYLQMNSLRAEDKAVYYCARDMGFADYALNLWGQGTLVDVSS | 2.5 nM | 1.4 fold | 0 | 0 |
| PRO3325 (scFv 54-21-H03-sc01_(T101S, T146R)) (scFv, PRO1922 variant; VH substitutions, AHo numbering; also called PRO1922 T101S-T146R) scFv: DIQMTQSPSSLSASVGDRVTITCQASESIYSSLAWYQQKPGKAPKLLIYLASTLASGVPSRFSGSGSGTDFTLTISSLQPEDFATYYCQSTDYTTSTHRNSFGTGTKVTVLGGGGGSGGGGSGGGGSGGGGSEVQLVESGGGLVQPGGSLRLSCAASGFSFSTTYYMCWVRQAPGKGLEWIGCTNTASSVRTYYATWAKGRFTISRDNSKNTVYLQMNSLRAEDSAVYYCARDMGFADYALNLWGQGTLVRVSS | 1.8 nM | 1 fold | 1 | 4 |
| PRO3329 (scFv 54-21-H03-sc01_(T101Q)) (scFv, PRO1922 variant; VH substitution, AHo numbering; also called PRO1922 T101Q) scFv: DIQMTQSPSSLSASVGDRVTITCQASESIYSSLAWYQQKPGKAPKLLIYLASTLASGVPSRFSGSGSGTDFTLTISSLQPEDFATYYCQSTDYTTSTHRNSFGTGTKVTVLGGGGGSGGGGSGGGGSGGGGSEVQLVESGGGLVQPGGSLRLSCAASGFSFSTTYYMCWVRQAPGKGLEWIGCTNTASSVRTYYATWAKGRFTISRDNSKNTVYLQMNSLRAEDQAVYYCARDMGFADYALNLWGQGTLVTVSS | 1.6 nM | 0.9 fold | 1 | 2 |
| PRO3349 (scFv 54-21-H03-sc01_(T101R, T146E)) (scFv, PRO1922 variant; VH substitutions, AHo numbering; also called PRO1922 T101R-T146E) scFv: DIQMTQSPSSLSASVGDRVTITCQASESIYSSLAWYQQKPGKAPKLLIYLASTLASGVPSRFSGSGSGTDFTLTISSLQPEDFATYYCQSTDYTTSTHRNSFGTGTKVTVLGGGGGSGGGGSGGGGSGGGGSEVQLVESGGGLVQPGGSLRLSCAASGFSFSTTYYMCWVRQAPGKGLEWIGCTNTASSVRTYYATWAKGRFTISRDNSKNTVYLQMNSLRAEDRAVYYCARDMGFADYALNLWGQGTLVEVSS | 1.9 nM | 1.1 fold | 0 | 0 |
| PRO3346 (scFv 54-21-H03-sc01_(T101S T146K)) (scFv, PRO1922 variant; VH substitutions, AHo numbering; also called PRO1922 T101S-T146K) scFv: DIQMTQSPSSLSASVGDRVTITCQASESIYSSLAWYQQKPGKAPKLLIYLASTLASGVPSRFSGSGSGTDFTLTISSLQPEDFATYYCQSTDYTTSTHRNSFGTGTKVTVLGGGGGSGGGGSGGGGSGGGGSEVQLVESGGGLVQPGGSLRLSCAASGFSFSTTYYMCWVRQAPGKGLEWIGCTNTASSVRTYYATWAKGRFTISRDNSKNTVYLQMNSLRAEDSAVYYCARDMGFADYALNLWGQGTLVKVSS | 1.5 nM | 0.8 fold | 0 | 0 |
